To fix the notation:
B2: Mpn400 (residues 41 to 582), His-tagged recombinant, lacking the membrane domain (other)
chain: HHHHHHSSGLVPRGSHMNEVLRLQSGETLIASGRSGNLSFQLYSKVNQNAKSKLNSISLTDGGYRSEIDLGDGSNFREDFRNFANNLSEAITDAPKDLLRPVPKVEVSGLIKTSSTFITPNFKAGYYDQVAADGKTLKYYQSTEYFNNRVVMPILQTTNGTLTANNRAYDDIFVDQGVPKFPGWFHDVDKAYYAGSNGQSEYLFKEWNYYVANGSPLYNVYPNHHFKQIKTIAFDAPRIKQGNTDGINLNLKQRNPDYVIINGLTGDGSTLKDLELPESVKKVSIYGDYHSINVAKQIFKNVLELEFYSTNQDNNFGFNPLVLGDHTNIIYDLFASKPFNYIDLTSLELKDNQDNIDASKLKRAVSDIYIRRRFERQMQGYWAGGYIDRYLVKNTNEKNVNKDNDTVYAALKDINLHLEETYTHGGNTMYRVNENYYPGASAYEAERATRDSEFQKEIVQRAELIGVVFEYGVKNLRPGLKYTVKFESPQEQVALKSTDKFQPVIGSVTDMSKSVTDLIGVLRDNAEILNITNVSKDETVVAELKEKLDRENVFQEIRT

Test [1] concerns the target B2. Description: Biolayer Interferometry; antibody on protein G sensors, Mpn400 in solution.
The target in test [2] is T1, Human IgG4κ (Sigma Aldrich catalog no. 14639), myeloma antibody. The description is as above.
The target of test [3] is T2, Human IgG2κ (Sigma Aldrich catalog no. 15404), myeloma antibody.
T2 construct: also called IgG2k
The test is described as above.

The target of test [4] is T3, 4PL IgG, human multiple myeloma antibody (Mayo Clinic). The test is described as above.
The target in test [5] is T4, Human IgG3κ (Sigma Aldrich catalog no. 15654), myeloma antibody.
T4 construct: also called IgG3k
The description is as above.

Test [6] addresses T5, Human IgG2λ (Sigma Aldrich catalog no. 15279), myeloma antibody.
T5 construct: also called IgG21
Described as above.

For test [7], the target named is T6, Human IgG1κ (Sigma Aldrich catalog no. 15154), myeloma antibody.
T6 construct: also called IgG1k
The test is described as above.

Test [8] addresses T7, PGT135 Fab (against HIV-1 gp120, κ light chain).
T7 construct: also called Fab PGT135
Put plainly: Biolayer Interferometry (Octet Red).

Test [9] concerns the target T8, Fab CR9114 (against influenza hemagglutinin, λ light chain).
T8 construct: also called CR9114 Fab
Description: Biolayer Interferometry (Octet Red). For orientation: In BLI a coated tip is dipped into the sample, and binding shifts an interference pattern.

In test [10] the target is T1, Human IgG4κ (Sigma Aldrich catalog no. …). Description: Biolayer Interferometry; antibody (printed IgG4λ) on protein G sensors, PM2 in solution.
Test [11] deals with T4, Human IgG3κ (Sigma Aldrich catalog no. …). Description: Biolayer Interferometry; antibody (printed IgG3λ) on protein G sensors, PM2 in solution.
The target of test [12] is T2, Human IgG2κ (Sigma Aldrich catalog no. …). Description: Biolayer Interferometry; antibody on protein G sensors, PM2 in solution.
Test [13] deals with T3, 4PL IgG, human multiple myeloma …. The test is described as above.
The target in test [14] is T5, Human IgG2λ (Sigma Aldrich catalog no. …). Described as above.

B1: 13PL IgG, monoclonal immunoglobulin from multiple myeloma patient 13PL (human IgG1κ) (antibody, V domains shown)
VH: AVSLVESGGGTVEPGSTLRLSCAASGFTFGSYAFHWVRQAPGDGLEWVAFISYNGSSKYYANFVKGRFTISRDNSSNTLSLQMNSLKASDTAVYYCARAPDCAQADCHKGAFGYWGQGTLVTVSS
VL: DIEMTQSPSSLSASTGDKVTITCQASQDIAQFLDWYQQRPGDTPKLLIYDASNLAIGVPSRFTGSGSGTDFTFTISSLQPEDIAVYYCQHYDDFPISFGPGTKLETKR
notes: also called multiple myeloma antibody 13PL; Multiple Myeloma antibody (13PL)
By Kd is commonly meant a measure of binding affinity in units of concentration. With B1, the Kd in test [1] turned out to be 0.5 nM.

With B2, the dissociation constant (Kd) amounted to 0.43 nM in [2]; 6.23 nM in test [3]; 0.6 nM in test [4]; 0.93 nM in test [5]; 13 nM in test [6]; 0.48 nM in [7].

B3: recombinant Protein M TD (His-tagged MG281 residues 74 to 468) (other)
chain: HHHHHHSSGLVPRGSHMSLSLNDGSYQSEIDLSGGANFREKFRNFANELSEAITNSPKGLDRPVPKTEISGLIKTGDNFITPSFKAGYYDHVASDGSLLSYYQSTEYFNNRVLMPILQTTNGTLMANNRGYDDVFRQVPSFSGWSNTKATTVSTSNNLTYDKWTYFAAKGSPLYDSYPNHFFEDVKTLAIDAKDISALKTTIDSEKPTYLIIRGLSGNGSQLNELQLPESVKKVSLYGDYTGVNVAKQIFANVVELEFYSTSKANSFGFNPLVLGSKTNVIYDLFASKPFTHIDLTQVTLQNSDNSAIDANKLKQAVGDIYNYRRFERQFQGYFAGGYIDKYLVKNVNTNKDSDDDLVYRSLKELNLHLEEAYREGDNTYYRVNENYYPGASIYENERASRDSEFQNEILKR
For the molecule B3, the Kd in test [8] stood at 3.7 nM; in [9], 1.9 nM.

B4: PM2 (Protein M TD residues 74 to 482, Tyr158 to phenylalanine) (other)
chain: HHHHHHSSGLVPRGSHMSLSLNDGSYQSEIDLSGGANFREKFRNFANELSEAITNSPKGLDRPVPKTEISGLIKTGDNFITPSFKAGYYDHVASDGSLLSYFQSTEYFNNRVLMPILQTTNGTLMANNRGYDDVFRQVPSFSGWSNTKATTVSTSNNLTYDKWTYFAAKGSPLYDSYPNHFFEDVKTLAIDAKDISALKTTIDSEKPTYLIIRGLSGNGSQLNELQLPESVKKVSLYGDYTGVNVAKQIFANVVELEFYSTSKANSFGFNPLVLGSKTNVIYDLFASKPFTHIDLTQVTLQNSDNSAIDANKLKQAVGDIYNYRRFERQFQGYFAGGYIDKYLVKNVNTNKDSDDDLVYRSLKELNLHLEEAYREGDNTYYRVNENYYPGASIYENERASRDSEFQNEILKRAEQNGVTFDENIKR
Turning to B4, the Kd stood at 1.84 nM in test [10]; 6.6 nM in test [11]; 9.56 nM in test [12]; 0.6 nM in test [13]; 8.9 nM in test [14].

These data come from patent US20170320921A1 (Scripps Research, published 2017).
